Our source for the percent of added protein bound to the resin values is paper PMC9835395.

The target of this assay is albumin (on albumin-functionalized agarose resin) (UniProt P07724). The assay can be described thus: pull-down; AF647-labelled eOD or amph-eOD incubated with albumin-functionalized agarose resin for 2 hours at 37°C; resin separated and protein remaining in solution measured.
UniProt P07724, sequence (P07724 25-608): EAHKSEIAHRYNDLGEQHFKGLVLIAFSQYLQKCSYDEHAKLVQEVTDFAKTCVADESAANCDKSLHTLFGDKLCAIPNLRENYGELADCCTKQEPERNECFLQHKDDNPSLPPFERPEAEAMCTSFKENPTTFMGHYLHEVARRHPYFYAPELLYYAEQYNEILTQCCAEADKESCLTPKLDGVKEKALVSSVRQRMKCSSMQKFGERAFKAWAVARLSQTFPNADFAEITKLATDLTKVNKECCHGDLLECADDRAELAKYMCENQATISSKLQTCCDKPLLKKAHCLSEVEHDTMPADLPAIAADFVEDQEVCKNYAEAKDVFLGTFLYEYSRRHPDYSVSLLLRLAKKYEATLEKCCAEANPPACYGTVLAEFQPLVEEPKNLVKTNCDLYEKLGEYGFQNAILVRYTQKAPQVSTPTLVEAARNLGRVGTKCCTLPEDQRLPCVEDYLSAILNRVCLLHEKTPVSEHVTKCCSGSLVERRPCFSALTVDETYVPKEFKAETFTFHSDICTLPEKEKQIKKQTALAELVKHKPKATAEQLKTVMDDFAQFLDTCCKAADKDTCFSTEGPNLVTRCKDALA

“amph-eOD (eOD-GT8 with N-terminal cysteine and C-terminal PADRE, conjugated to PEG2K-DSPE)” came in with a percent of added protein bound to the resin of 60%.
